For one molecule, mortality of mandarin fish challenged with SDDV pre-incubated with TM-B, against the petB2M control (blocks m2 with m8) results are on record in article PMC12363161.

The experiment addresses SDDV major capsid protein, Flag-tagged (pFlag-N3-SDDV MCP) (scale drop disease virus (SDDV)).

B1: TM-B polypeptide containing the binding site with SDDV-MCP in mfTfR1 (peptide)
peptide: ADLFRNQFALATWTIQGCANSLAGDIWSL
In turn, B1 yielded a mortality of mandarin fish challenged with SDDV pre-incubated with TM-B, against the petB2M control (blocks m2 with m8) of 40%.
